Drawing on patent US20170226155A1, this text covers IC50, IC50, pH 2 (Tetrapeptide Prodrugs) and IC50, pH 8 (Tetrapeptide Prodrugs) for nine molecules.

Where no end group is shown, it is not given here. [ ]: non-standard residue; d: D form. The star is where a group is joined. NMeF = CN[C@@H](Cc1ccccc1)C(=O)O; boroPro = OB(O)[C@@H]1CCCN1*

This experiment deals with Dipeptidyl amino peptidase type IV (DPP IV). The experiment can be described thus: cell-based or functional assay.
On to AAV[boroPro] [AlaAlaValboroPro], for which the IC50 (commonly the concentration needed to halve the response being measured) at ten minutes, pH 2 was 2 µM and the IC50 at ten minutes, pH 8 came out at 25 µM.

As for [NMeF]PA[boroPro] [N-Me-Phe-PRO-ALA-PRO boronic acid], the 50% inhibitory concentration (IC50) at ten minutes, pH 2 amounted to 2 µM and the IC50 at ten minutes, pH 8 is 2.7 µM.

As for PPP[boroPro] [ProProProboroPro], the IC50, pH 2 (Tetrapeptide Prodrugs) was 10 µM and the half-maximal inhibitory concentration (IC50) at ten minutes, pH 2 was found to be 10 µM.

On to APP[boroPro] [AlaProProboroPro], for which the IC50, pH 2 (Tetrapeptide Prodrugs) worked out at 8 mM and the IC50 at ten minutes, pH 2 is 8.3 µM.

Regarding FPA[boroPro] [Phenylalanine-proline-alanine-proline boronic acid], the IC50 at ten minutes, pH 2 worked out at 6 nM and the IC50 at ten minutes, pH 8 was 8 nM.

YPA[boroPro] [Tyrosine-proline-alanine-proline boronic acid] displayed an IC50 at ten minutes, pH 2 of 15 nM and an IC50 at ten minutes, pH 8 of 17 nM.

For APV[boroPro] [AlaProValboroPro], the IC50, pH 2 (Tetrapeptide Prodrugs) was determined as 20 nM; the IC50, pH 8 (Tetrapeptide Prodrugs) turned out to be 21 nM; the IC50 at ten minutes, pH 2 came out at 20 nM; the IC50 at ten minutes, pH 8 came out at 21 nM.

With GPV[boroPro] [GlyProValboroPro], the IC50, pH 2 (Tetrapeptide Prodrugs) stood at 17 nM; the IC50, pH 8 (Tetrapeptide Prodrugs) was determined as 46 nM; the IC50 at ten minutes, pH 2 turned out to be 17 nM; the IC50 at ten minutes, pH 8 amounted to 46 nM.

Consider GPP[boroPro] [GlyProProboroPro], for which the IC50, pH 2 (Tetrapeptide Prodrugs) was determined as 9 µM; the concentration for half-maximal inhibition (IC50) at ten minutes, pH 2 is 8.6 µM; the concentration for half-maximal inhibition (IC50) at ten minutes, pH 8 came out at 20 µM.
